Measured values: patent US11633499B2, “Anti-TMEM-180 antibody, anticancer drug and cancer testing method” (NATIONAL CANCER CENTER JAPAN, priority 2016, dated 2023)

T1: TMEM-180 (Homo sapiens, UniProt Q14CX5)
T1 construct: endogenous in cells; host or cells: DLD-1 colon cancer cell line (parent / wild type); culture supernatant exosomes in A20
T1 sequence (Q14CX5 1-517): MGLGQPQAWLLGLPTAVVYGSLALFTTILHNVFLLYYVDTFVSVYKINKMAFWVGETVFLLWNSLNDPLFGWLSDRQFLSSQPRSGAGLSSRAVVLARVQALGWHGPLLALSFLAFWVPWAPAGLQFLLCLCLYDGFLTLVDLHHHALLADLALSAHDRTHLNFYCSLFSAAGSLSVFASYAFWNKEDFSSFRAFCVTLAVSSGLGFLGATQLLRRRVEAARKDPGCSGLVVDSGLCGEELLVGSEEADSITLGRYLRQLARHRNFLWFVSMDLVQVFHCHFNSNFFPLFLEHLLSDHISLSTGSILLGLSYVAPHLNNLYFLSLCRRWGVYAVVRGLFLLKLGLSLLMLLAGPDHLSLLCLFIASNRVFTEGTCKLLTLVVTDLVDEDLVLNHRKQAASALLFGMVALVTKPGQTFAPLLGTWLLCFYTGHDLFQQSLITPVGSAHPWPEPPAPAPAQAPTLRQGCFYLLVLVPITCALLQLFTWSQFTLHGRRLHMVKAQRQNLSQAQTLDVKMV


Key:
TMEM-180 = target: T1, TMEM-180; experiment: FACS of DLD-1 parent line and TMEM-180 knockout line; format: binding; conditions: for FACS shift, TMEM-180 knockout line versus parent line: DLD-1 parent line vs TMEM-180 knockout line, FIG. 5; for specific recognition of TMEM-180: conclusion from DLD-1 parent vs knockout FACS
Protocol: The plate was centrifuged for 3 minutes at 440×g and 4° C. followed by removing the supernatant, adding antibody-producing hybridoma culture supernatant or antibody solution to the cell pellet at 50 μL/well and suspending therein. After allowing to react for 45 minutes on ice, the plate was washed three times with a mixture of 0.1% BSA, 2 mM EDTA and PBS at 200 μL/well. The supernatant was removed and secondary antibody was added to the cell pellet at 50 μL/well followed by suspending the cells therein. […] After allowing to react for 45 minutes on ice, the plate was washed three times with a mixture of 0.1% BSA, 2 mM EDTA and PBS at 200 μL/well. […] The cells stained in this manner were measured using a flow cytometer such as the Guava easyCyte 8HT (Merck Millipore Corporation) followed by analysis of the resulting data using FlowJO (Tomy Digital Biology Co., Ltd.). FACS analysis was carried out using colon cancer, brain tumor and hematologic cancer.
Flow cytometry was carried out in accordance with the procedure described in the above-mentioned section 3. […] The supernatant of a culture of hybridoma producing rat IgM antibody clone 365 was used as a negative control after similarly diluting to 1 μg/mL. […] A mixture of RPMI and 10% FBS was used to dilute each of the antibodies. Furthermore, antibody concentration in the hybridoma culture supernatant was measured by rat IgM-specific ELISA (Bethyl Laboratories).

[1] = tested on: hematologic tumor K562 cells; experiment: Cytocidal effect of anti-TMEM-180 IgM antibody (WST-8), K562; format: cell-based; conditions: hybridoma culture supernatant adjusted to 80, 20 or 5 μg/mL, 96 hours, FIGS. 7 and 8
Protocol: (§1) DLD-1 cells and K562 cells were added to a 96-well plate at 1×10^3 cells/100 μL/well followed by culturing for 24 hours. 50 μL of medium were removed from each well of the 96-well plate followed by the addition of rat IgM antibody clone 98-producing hybridoma culture supernatant or rat IgM antibody clone 101-producing hybridoma culture supernatant, in which antibody concentration had been adjusted to 80 μg/mL, 20 μg/mL or 5 μg/mL, at 50 μL/well. Here, n number in each culture condition was 3, and wells containing medium only were prepared as controls. […] After culturing for 96 hours, WST-8 (Dojindo Laboratories, Cell Counting Kit-8) was added at 10 μL/well followed by measuring absorbance at 450 nm with a microplate reader after culturing for 3 hours. The relative values of absorbance at each antibody concentration were plotted by plotting antibody concentration on the horizontal axis and assigning a value of 1 to the optical absorbance of the well containing medium only. […] Cytocidal effects were also observed for other colon cancer cells Difi, Carl, SW480 and Colo201.

DLD-1 colon cancer cells = experiment: Fluorescent immunostaining of DLD-1 colon cancer cells; format: binding, human; conditions: fixed and permeabilized DLD-1; antibody concentrations of clones not aligned; FIG. 4
Protocol: DLD-1 cells were added to a 96-well plate (Corning Incorporated, CeIIBIND) to a concentration of 5×10^3 cells/well and subjected to cell staining after culturing for 2 days. The cells were subjected to fixation and permeation treatment in the manner indicated below. After washing the cell culturing plate twice with PBS at 200 μL/well, the washings were removed followed by the addition of 4% para-formaldehyde-phosphate buffer (Wako Pure Chemical Industries, Ltd.) containing 0.1% TRITON™ (surfactant) X-100 (Wako Pure Chemical Industries, Ltd.) at 100 µL/well while cooling with ice and fixing the cells for 10 minutes. After removing the fixation solution, the plate was washed once with PBS at 200 μL/well and once with a mixture of 1% FBS in PBS at 200 μL/well to obtain a cell-immobilized plate. The cells were stained in the manner indicated below. Namely, after removing medium from the non-immobilized cell culturing plate and removing washings from the cell-immobilized plate, […] hybridoma culture supernatant or diluted antibody solution was added at 50 μL/well. After allowing to react for 1 hour on ice, the plate was washed once with PBS at 200 μL/well and twice with a mixture of 1% FBS in PBS at 200 μL/well. After removing the washings, a mixture of 5 μg/mL ALEXAFLUOR 647@ (fluorescent compound) goat anti-rat IgG (H-L), 2 μg/mL Hoechst 33342 and 1% FBS/PBS was added at 50 μL/well. After allowing to react for 1 hour on ice, the plate was washed twice with PBS at 200 μL/well. PBS was then added at 50 μL/well followed by measuring with ArrayScan (Thermo Fisher Scientific Inc.).

colon cancer cell lines = experiment: Flow cytometry (FACS) with anti-TMEM-180 IgM clones, colon cancer; format: binding; conditions: six types of colon cancers; FIG. 3
Protocol: (§2) Cancer cells targeted for measurement were cultured in medium and then added to a V-bottom 96-well plate (Corning Incorporated) to a concentration of 1×10^5 cells/well. The plate was centrifuged for 3 minutes at 440×g and 4° C. followed by removing the supernatant, adding antibody-producing hybridoma culture supernatant or antibody solution to the cell pellet at 50 μL/well and suspending therein. After allowing to react for 45 minutes on ice, the plate was washed three times with a mixture of 0.1% BSA, 2 mM EDTA and PBS at 200 μL/well. The supernatant was removed and secondary antibody was added to the cell pellet at 50 μL/well followed by suspending the cells therein. ALEXAFLUOR 647@ (fluorescent compound) goat anti-rat IgG (H-L) (Life Technologies Corporation) was used for the secondary antibody after diluting 400-fold with a mixture of 0.1% BSA, 2 mM EDTA and PBS. After allowing to react for 45 minutes on ice, the plate was washed three times with a mixture of 0.1% BSA, 2 mM EDTA and PBS at 200 μL/well. After removing the supernatant, 50 ng/mL of propidium iodide, 0.1% BSA, 2 mM EDTA and PBS were added to the cell pellet at 250 µL/well followed by suspending therein. The cells stained in this manner were measured using a flow cytometer such as the Guava easyCyte 8HT (Merck Millipore Corporation) followed by analysis of the resulting data using FlowJO (Tomy Digital Biology Co., Ltd.). FACS analysis was carried out using colon cancer, brain tumor and hematologic cancer.

colon cancer DLD-1 cells = experiment: Cytocidal effect of anti-TMEM-180 IgM antibody (WST-8), DLD-1; format: cell-based, human; conditions: hybridoma culture supernatant adjusted to 80, 20 or 5 μg/mL, 96 hours, FIGS. 7 and 8
Protocol: as §1

brain tumor cell lines = experiment: Flow cytometry (FACS) with anti-TMEM-180 IgM clones, brain tumor; format: binding; conditions: four types of brain tumors; FIG. 3
Protocol: as §2

[2] = tested on: human colon cancer formalin-fixed section; experiment: Immunostaining of formalin-fixed section of human colon cancer surgical specimens; format: binding; conditions: 1 μg/mL, FIG. 6
Protocol: Anti-TMEM-180 IgM rat antibody (clone 98) was reacted with a colon cancer formalin-fixed section at 1 μg/mL. HRP-labeled anti-rat antibody was used as secondary antibody and the section was stained with DAB followed by post-staining with hematoxylin.

| FACS shift, TMEM-180 knockout line versus parent line (TMEM-180) | specific recognition of TMEM-180 (TMEM-180) | Molecule | cytocidal effects against K562 cells [1] | fluorescent immunostaining (pattern, intensity) (DLD-1 colon cancer cells) | FACS reactivity to colon cancers (colon cancer cell lines) | cytocidal effects against DLD-1 cells (colon cancer DLD-1 cells) | FACS reactivity to brain tumors (brain tumor cell lines) | staining of colon cancer section ([2]; DAB) | localisation of staining in colon cancer cells [2] |
| --- | --- | --- | --- | --- | --- | --- | --- | --- | --- |
| considerable left shift | specifically recognize TMEM-180 | rat-human chimeric antibody clone 98: rat-human chimeric IgG1 antibody carrying clone 98 variable regions (antibody, V domains shown) VH: QVQLKESGPGLVQPSQTLSLTCTVSGFSLTRYNVHWVRQPTGKGLEWMGVIWTGGSTDYNSALKSRLSISRDTSKSQVFLKMNSLQTEDIATYYCARDLGYWGQGVMVTVSS VL: DIVMTQTPLSLSVAIGQSASISCKSSQSLKYRDGKTYLNWVFQSPGQSPKRLIYQVSKLDSGVPDRFSGTGSETDFTLKISRVEAEDLGVYYCCQGSYSPHTFGAGTKLELK |  |  |  |  |  |  |  |
| considerable left shift | specifically recognize TMEM-180 | clone 98: rat IgM anti-TMEM-180 monoclonal antibody; heavy chain variable region SEQ ID NO: 13, light chain variable region SEQ ID NO: 14 (antibody, V domains shown) VH: MAVLVLLLCLVTFPTCVLSQVQLKESGPGLVQPSQTLSLTCTVSGFSLTRYNVHWVRQPTGKGLEWMGVIWTGGSTDYNSALKSRLSISRDTSKSQVFLKMNSLQTEDIATYYCARDLGYWGQGVMVTVSS VL: MMSPAQFLFLLMLWIQETHSDIVMTQTPLSLSVAIGQSASISCKSSQSLKYRDGKTYLNWVFQSPGQSPKRLIYQVSKLDSGVPDRFSGTGSETDFTLKISRVEAEDLGVYYCCQGSYSPHTFGAGTKLELK | did not demonstrate cytocidal effects | stained primarily in the membrane | positive for all six types of colon cancers | demonstrated cytocidal effects | all four types of brain tumors | stained specifically | Both the cell membrane and cytoplasm of the colon cancer cells were stained |
|  |  | clone 212: rat IgM anti-TMEM-180 monoclonal antibody; variable regions SEQ ID NOs: 46 and 47 (antibody, V domains shown) VH: MDIRLSLAFLVLFIKGVQCEVQLVESGGGLVQPGNSLKLSCAASGFTFSDYAMAWVRQSPKKGLEWVATIIYDGSSTYYRDSVKGRFTISRDNAKSTLYLQMDSLRSEDTATYYCATHWYWYFDFWGPGTMVTVSS VL: MGVPTQLLGLLLLWITDAICDIQMTQSPASLSASLGETVSIECLASEGISNDLAWYQQKSGKSPQLLIYAASRLQDGVPSRFSGSGSGTRYSLKISGMQPEDEADYFCQQSYKYPLTFGSGTKLEIK |  | weaker fluorescence intensity than clone 98 and the cytoplasm was also stained | positive for all six types of colon cancers |  | positive for only one type of brain tumor |  |  |
|  |  | clone 101: rat IgM anti-TMEM-180 monoclonal antibody; variable regions SEQ ID NOs: 15 and 16 (antibody, V domains shown) VH: MAILVLLLCLVTIPHSVLSQVQLKETGPGLVQPTQTLSITCTVSGFSLTSYYMQWVRQTPGKGLEWMGFIRSGGSTEYNSEFKSRLSISRDTSKNQVFLKMNSLKTEDTGVYYCARAFYGGYYFDYWGQGVMVTVSS VL: MGIRMESHTRVFIFLLLWLSGADGDIVMTQSPTSISISVGERVTMNCKASQNVGSNVDWYQQKTGQSPKLLIYKASNRYTGVPDRFTGSGSGTDFTFTISNMQAEDLAVYYCMQSNTKYTFGAGTKLELK | did not demonstrate cytocidal effects | weaker fluorescence intensity than clone 98 and the cytoplasm was also stained | positive for four types of colon cancers | demonstrated cytocidal effects | negative for all of the brain tumors |  |  |
